Test results published in patent publication US20240115721A1 (Memorial Sloan Kettering, published 2024).

T1: endogenous human DLL3 on NCI-H82 cells (human, UniProt Q9NYJ7 27-618)
T1 sequence (looked up): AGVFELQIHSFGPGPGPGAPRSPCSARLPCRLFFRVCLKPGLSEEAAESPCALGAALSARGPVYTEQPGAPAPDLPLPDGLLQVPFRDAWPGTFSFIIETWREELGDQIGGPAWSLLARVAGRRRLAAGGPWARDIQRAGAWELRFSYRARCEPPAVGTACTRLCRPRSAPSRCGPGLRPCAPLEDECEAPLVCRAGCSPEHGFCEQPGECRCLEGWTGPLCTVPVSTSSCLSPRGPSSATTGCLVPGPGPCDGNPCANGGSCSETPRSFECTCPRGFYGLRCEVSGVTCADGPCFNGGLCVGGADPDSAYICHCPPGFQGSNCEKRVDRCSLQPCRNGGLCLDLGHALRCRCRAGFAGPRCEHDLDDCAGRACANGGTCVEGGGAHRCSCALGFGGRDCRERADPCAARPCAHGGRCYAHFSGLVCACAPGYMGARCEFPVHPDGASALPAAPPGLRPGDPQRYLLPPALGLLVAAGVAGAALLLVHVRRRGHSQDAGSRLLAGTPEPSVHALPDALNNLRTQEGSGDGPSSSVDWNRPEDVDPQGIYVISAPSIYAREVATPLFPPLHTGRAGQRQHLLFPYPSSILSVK

T2: full-length human DLL3 on transfected HEK293 cells (human, UniProt Q9NYJ7 27-618)
T2 construct: also called 293 hDLL3
T2 sequence: T1 sequence (looked up)

T3: full-length mouse DLL3 on transfected HEK293 cells (mouse, UniProt O88516 33-584)
T3 construct: also called 293 mDLL3
T3 sequence: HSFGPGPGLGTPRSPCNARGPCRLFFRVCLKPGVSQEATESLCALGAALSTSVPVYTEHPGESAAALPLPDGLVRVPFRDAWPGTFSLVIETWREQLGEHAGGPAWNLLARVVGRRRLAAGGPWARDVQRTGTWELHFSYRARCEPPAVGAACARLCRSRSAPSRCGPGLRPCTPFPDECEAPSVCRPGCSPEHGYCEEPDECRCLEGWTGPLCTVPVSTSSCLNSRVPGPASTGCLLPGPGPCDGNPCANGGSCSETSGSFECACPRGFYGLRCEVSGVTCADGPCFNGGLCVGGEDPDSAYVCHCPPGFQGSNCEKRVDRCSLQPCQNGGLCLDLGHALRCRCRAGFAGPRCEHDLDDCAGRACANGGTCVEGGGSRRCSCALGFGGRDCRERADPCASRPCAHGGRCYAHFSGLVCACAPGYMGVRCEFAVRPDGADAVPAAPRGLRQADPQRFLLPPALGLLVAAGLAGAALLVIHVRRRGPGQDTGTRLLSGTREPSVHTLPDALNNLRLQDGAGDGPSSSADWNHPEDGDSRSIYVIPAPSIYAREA

B1: 6-G23-F (antibody, V domains shown)
VH: QVQLVQSGAEVKKPGASVKVSCKASGYTFTSYYIHWVRQAPGQGLEWMGIIDPSDGSTNYAQKFQGRVTMTRDTSTSTVYMELSSLRSEDTAVYYCARDREYNYYGLDVWGQGTTVTVSS
VL: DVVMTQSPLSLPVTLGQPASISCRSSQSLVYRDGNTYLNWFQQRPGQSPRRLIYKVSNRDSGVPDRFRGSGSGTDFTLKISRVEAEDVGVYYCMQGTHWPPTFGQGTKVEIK
notes: Hybridoma monoclonal from Ablexis AlivaMAb Kappa mice (human immunoglobulin repertoire); the antibody was captured on anti-mouse Fc sensors and detected with anti-mouse IgG / anti-mouse IgG1 reagents; It is not the recombinant human IgG1 form H6-G23-F; also called 6-G23-F (10 µg/ml)
B2: 10-O18-A (antibody, V domains shown)
VH: QVQLQESGPGLVKPSETLSLTCTVSGGSINSYYWSWIRQPPGKGLEWIGYIFYSGITNYNPSLKSRVTISLDTSKNQFSLKLSSVTAADTAVYYCARIGVAGFYFDYWGQGTLVTVSS
VL: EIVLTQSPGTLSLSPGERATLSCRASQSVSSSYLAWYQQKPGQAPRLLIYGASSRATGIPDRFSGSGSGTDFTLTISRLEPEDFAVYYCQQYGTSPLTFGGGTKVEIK
notes: Hybridoma monoclonal from Ablexis AlivaMAb Kappa mice; captured and detected with anti-mouse Fc / anti-mouse IgG reagents; It is not the recombinant human IgG1 form H10-O18-A; also called 10-O18-A (10 µg/ml)
B3: 2-C8-A (antibody, V domains shown)
VH: EVQLVESGGGLVQPGGSQRLSCAASGFTFSSYWMNWVRQAPGKGLEWVANIKEDGSEKYYVDSVKGRFTISRDNAKNSLYLQMNSLRAEDTAVYYCARDPGWAPFDYWGQGTLVTVSS
VL: DIQMSQSPSSLSASVGDRVTITCRASQGISNYLAWFQQKPGKAPKSLIYAASSLQSGVPSKFSGSGSGTDFTLAISSLQPEDFATYYCQQYNSFPYTFGQGTTLEIK
notes: Hybridoma monoclonal from Ablexis AlivaMAb Kappa mice; captured and detected with anti-mouse Fc / anti-mouse IgG reagents; It is not the recombinant human IgG1 form H2-C8-A; also called 2-C8-A (10 µg/ml)
B4: 7-I1-B (antibody, V domains shown)
VH: EVQLVESGGGLVKPGGSLRLSCAASGFTFSNTWMSWVRQAPGKGLEWVGRIKSKSDGGTTDYAAPVKGRFTISRDDSKNTLYLQMNSLKTEDTAVYYCTQYYWNSFDYWGQGTLVTVSS
VL: not shown
notes: Hybridoma monoclonal from Ablexis AlivaMAb Kappa mice; captured and detected with anti-mouse Fc / anti-mouse IgG reagents; also called 7-I1-B (10 µg/ml)

Columns and labels:
[1] = target: T1, endogenous human DLL3 on NCI-H82 cells; assay: cell-based or functional assay
[2] = target: T1, endogenous human DLL3 on NCI-H82 cells; assay: cell-based or functional assay; remark: listed apart in the source
[3] = target: T1, endogenous human DLL3 on NCI-H82 cells; assay: cell-based or functional assay; remark: listed apart in the source
[4] = target: T1, endogenous human DLL3 on NCI-H82 cells; assay: flow cytometry, NCI-H82 cells (endogenous DLL3), mAb 10 µg/ml
Description: (§1) The four monoclonal antibodies (6-G23-F, 2-C8-A, 7-I1-B and 10-O18-A) were tested for their ability to bind to mouse and cynomolgous DLL3 as well as endogenous human DLL3 by flow cytometry. For this purpose, HEK293 cells were transfected with plasmid DNA encoding full-length human, mouse or cynomolgous DLL3 and used in the experiment. Briefly 106 transfected HEK293 cells or NCI-H82 primary cells were added in FACS buffer PBS 0.5% BSA to the wells of a 96 well U bottom plate and purified monoclonal added to 10 μg/ml. After 30 minutes incubation at 4° C. the cells were washed 3 times in FACS buffer and incubated with a PE labelled F(ab)2 anti-mouse IgG H and L 2nd stage. After another 30 minutes incubation at 4° C. the cells were washed three times in FACS buffer and analyzed on the flow cytometer. Data are presented at the ratio of the Mean Fluorescent Intensity for the monoclonal divided by the background staining with the 2nd stage. As shown in the Table below, all of the monoclonal antibodies cross reacted with cynomolgous DLL3 and detected endogenous DLL3 on NCI H82 cells but only 6-G23-F and 7-I1-B bound to mouse DLL3.

[5] = target: T2, full-length human DLL3 on transfected …; assay: flow cytometry, HEK293 cells transfected with full-length human DLL3, mAb 10 µg/ml
Description: as §1

[6] = target: T3, full-length mouse DLL3 on transfected …; assay: flow cytometry, HEK293 cells transfected with full-length mouse DLL3, mAb 10 µg/ml
Description: as §1

[7] = target: T4, full-length cynomolgous DLL3 on transfected HEK293 cells (cynomolgous); assay: flow cytometry, HEK293 cells transfected with full-length cynomolgous DLL3, mAb 10 µg/ml
T4 construct: whole, on cells; also called 293 cyno DLL3
Description: as §1

| Binder | MFI Ratio (4° C. plate / 37° C. plate), 4/37 internalization assay on NCI-H82 cells [1] | Dy light Dy658 Fluorescence (% of the Control Reference Monoclonal Antibody), quenching internalization assay on NCI-H82 cells [2] [%] | FAB ZAP % SC16 Max Killing, NCI-H82 cells [3] [%] | ratio of Mean Fluorescent Intensity (monoclonal / background staining with 2nd stage) [4] | ratio of Mean Fluorescent Intensity (monoclonal / background staining with 2nd stage) [5] | ratio of Mean Fluorescent Intensity (monoclonal / background staining with 2nd stage) [6] | ratio of Mean Fluorescent Intensity (monoclonal / background staining with 2nd stage) [7] |
| --- | --- | --- | --- | --- | --- | --- | --- |
| B1 | 1.67 | 76.5 | 94 | 11.1 | 6.33 | 3.97 | 13.1 |
| B2 | 1.56 |  |  | 9.4 | 4.74 | 0.99 | 9.85 |
| B3 | 1.76 | 62.9 | 89 | 11.9 | 7.71 | 1.5 | 15 |
| B4 | 1.68 | 70.1 | 97 | 19.2 | 9.74 | 4.7 | 18.7 |
